# From US20050191240A1 (BIOSYNTHEMA, published 2005)
# *1 amine or outer side, *2 acyl side, *3 side chain or, on linkers, in order; H or OH if unused. [ ]: non-standard residue; d: D form. The star is where a group is joined. trans‑Cha(4-CH2NH2) = trans-(4-aminomethyl)cyclohexylalanine, O=C([C@H](C[C@H]1CC[C@H](CN[*:3])CC1)N[*:1])[*:2]; Gly(1-amidinopiperidin-4-yl) = N=C(N)N1CCC([C@H](N)C(=O)O)CC1; DTPA = O=C(O)CN(CCN(CC(=O)O)CC(=O)O)CCN(CC(=O)O)CC(=O)*; Phe(4-guanidino) = N=C(N)Nc1ccc(C[C@H](N)C(=O)O)cc1; homoAla(PipAm) = (N-amidinopiperidinyl)homoalanine; Ala(PipAm) = (N-amidinopiperidinyl)alanine; Dmt = Cc1cc(O)cc(C)c1C[C@H](N)C(=O)O; mTyr = N[C@@H](Cc1cccc(O)c1)C(=O)O; Ala(cPr) = N[C@@H](CC1CC1)C(=O)O; AzeCA = azetidinecarboxylic acid; tBuAla = CC(C)(C)C[C@H](N)C(=O)O; Cha = N[C@@H](CC1CCCCC1)C(=O)O; Chg = N[C@H](C(=O)O)C1CCCCC1; Tle = CC(C)(C)[C@H](N)C(=O)O; Aba(Apy) = not defined here; PipGly = piperidinylglycine; NHOH = ON*
# B1: DTPA-DLys-Pro-Gly(PipAm)-Arg-Pro-Tyr-tBuGly-Cpa-OH (peptide)
# peptide: {DTPA}-[dK]P[Gly(1-amidinopiperidin-4-yl)]RPY[Tle][Ala(cPr)]-OH
# SMILES: CC(C)(C)[C@H](NC(=O)[C@H](Cc1ccc(O)cc1)NC(=O)[C@@H]1CCCN1C(=O)[C@H](CCCNC(=N)N)NC(=O)[C@@H](NC(=O)[C@@H]1CCCN1C(=O)[C@@H](CCCCN)NC(=O)CN(CCN(CCN(CC(=O)O)CC(=O)O)CC(=O)O)CC(=O)O)C1CCN(C(=N)N)CC1)C(=O)N[C@@H](CC1CC1)C(=O)O
# B2: DTPA-DLys-Pro-Gly(PipAm)-Arg-Pro-Tyr-tBuGly-tBuAla-OH (peptide)
# peptide: {DTPA}-[dK]P[Gly(1-amidinopiperidin-4-yl)]RPY[Tle][tBuAla]-OH
# SMILES: CC(C)(C)C[C@H](NC(=O)[C@@H](NC(=O)[C@H](Cc1ccc(O)cc1)NC(=O)[C@@H]1CCCN1C(=O)[C@H](CCCNC(=N)N)NC(=O)[C@@H](NC(=O)[C@@H]1CCCN1C(=O)[C@@H](CCCCN)NC(=O)CN(CCN(CCN(CC(=O)O)CC(=O)O)CC(=O)O)CC(=O)O)C1CCN(C(=N)N)CC1)C(C)(C)C)C(=O)O
# B3: DTPA-trans-Cha(4-CH2NH2)-Pro-Gly(PipAm)-Arg-Pro-Tyr-tBuGly-Leu-OH (peptide)
# peptide: {DTPA}-[trans‑Cha(4-CH2NH2)]P[Gly(1-amidinopiperidin-4-yl)]RPY[Tle]L-OH
# SMILES: CC(C)C[C@H](NC(=O)[C@@H](NC(=O)[C@H](Cc1ccc(O)cc1)NC(=O)[C@@H]1CCCN1C(=O)[C@H](CCCNC(=N)N)NC(=O)[C@@H](NC(=O)[C@@H]1CCCN1C(=O)[C@H](C[C@H]1CC[C@H](CN)CC1)NC(=O)CN(CCN(CCN(CC(=O)O)CC(=O)O)CC(=O)O)CC(=O)O)C1CCN(C(=N)N)CC1)C(C)(C)C)C(=O)O
# B4: DTPA-DLys-Pro-Gly(PipAm)-Arg-Pro-Tyr-tBuGly-Cha-OH (peptide)
# peptide: {DTPA}-[dK]P[Gly(1-amidinopiperidin-4-yl)]RPY[Tle][Cha]-OH
# SMILES: CC(C)(C)[C@H](NC(=O)[C@H](Cc1ccc(O)cc1)NC(=O)[C@@H]1CCCN1C(=O)[C@H](CCCNC(=N)N)NC(=O)[C@@H](NC(=O)[C@@H]1CCCN1C(=O)[C@@H](CCCCN)NC(=O)CN(CCN(CCN(CC(=O)O)CC(=O)O)CC(=O)O)CC(=O)O)C1CCN(C(=N)N)CC1)C(=O)N[C@@H](CC1CCCCC1)C(=O)O
# B5: DTPA-DLys-Pro-(4-Gu)Phe-Arg-Pro-Tyr-Ile-Leu-OH (peptide)
# peptide: KPXRPYIL
# modifications: N-terminal DTPA; D-Lys at 1; (4-Gu)Phe [Phe(4-guanyl)] at 3 (X)
# notes: also called Compound I; DTPA-DLys-Pro-Phe(4-guanyl)-Arg-Pro-Tyr-Ile-Leu-OH
# B6: DTPA-DLys-Pro-Gly(PipAm)-Arg-Pro-Tyr-Ile-Leu-OH (peptide)
# peptide: KPXRPYIL
# modifications: N-terminal DTPA; D-Lys at 1; Gly(PipAm) ((N-amidinopiperidinyl)glycine) at 3 (X)
# notes: also called Compound II
# B7: DTPA-DLys-Pro-(4-Gu)Phe-(4-Gu)Phe-Pro-Tyr-Ile-Leu-OH (peptide)
# peptide: {DTPA}-[dK]P[Phe(4-guanidino)][Phe(4-guanidino)]PYIL-OH
# SMILES: CC[C@H](C)[C@H](NC(=O)[C@H](Cc1ccc(O)cc1)NC(=O)[C@@H]1CCCN1C(=O)[C@H](Cc1ccc(NC(=N)N)cc1)NC(=O)[C@H](Cc1ccc(NC(=N)N)cc1)NC(=O)[C@@H]1CCCN1C(=O)[C@@H](CCCCN)NC(=O)CN(CCN(CCN(CC(=O)O)CC(=O)O)CC(=O)O)CC(=O)O)C(=O)N[C@@H](CC(C)C)C(=O)O
# notes: also called DTPA-DLys-Pro-Phe(4-guanyl)-Phe(4-guanyl)-Pro-Tyr-Ile-Leu-OH
# B8: DTPA-DLys-Pro-Arg-(4-Gu)Phe-Pro-Tyr-Ile-Leu-OH (peptide)
# peptide: KPRXPYIL
# modifications: N-terminal DTPA; D-Lys at 1; (4-Gu)Phe [Phe(4-guanyl)] at 4 (X)
# notes: also called DTPA-DLys-Pro-Arg-Phe(4-guanyl)-Pro-Tyr-Ile-Leu-OH
# B9: DTPA-DLys-Pro-(4-Gu)Phe-Arg-Pro-Tyr-tBuGly-Leu-OH (peptide)
# peptide: {DTPA}-[dK]P[Phe(4-guanidino)]RPY[Tle]L-OH
# notes: also called Compound IX; DTPA-DLys-Pro-Phe(4-guanyl)-Arg-Pro-Tyr-tBuGly-Leu-OH
# B10: DTPA-DTyr-Glu-Asn-Lys-Pro-Gly(PipAm)-Arg-Pro-Tyr-tBuGly-Cha-OH (peptide)
# peptide: {DTPA}-[dY]ENKP[Gly(1-amidinopiperidin-4-yl)]RPY[Tle][Cha]-OH
# SMILES: CC(C)(C)[C@H](NC(=O)[C@H](Cc1ccc(O)cc1)NC(=O)[C@@H]1CCCN1C(=O)[C@H](CCCNC(=N)N)NC(=O)[C@@H](NC(=O)[C@@H]1CCCN1C(=O)[C@H](CCCCN)NC(=O)[C@H](CC(N)=O)NC(=O)[C@H](CCC(=O)O)NC(=O)[C@@H](Cc1ccc(O)cc1)NC(=O)CN(CCN(CCN(CC(=O)O)CC(=O)O)CC(=O)O)CC(=O)O)C1CCN(C(=N)N)CC1)C(=O)N[C@@H](CC1CCCCC1)C(=O)O
# notes: also called Compound XIV
# B11: DTPA-DTyr-Glu-Asn-Lys-Pro-Gly(PipAm)-Arg-Pro-Tyr-tBuGly-tBuAla-OH (peptide)
# peptide: {DTPA}-[dY]ENKP[Gly(1-amidinopiperidin-4-yl)]RPY[Tle][tBuAla]-OH
# SMILES: CC(C)(C)C[C@H](NC(=O)[C@@H](NC(=O)[C@H](Cc1ccc(O)cc1)NC(=O)[C@@H]1CCCN1C(=O)[C@H](CCCNC(=N)N)NC(=O)[C@@H](NC(=O)[C@@H]1CCCN1C(=O)[C@H](CCCCN)NC(=O)[C@H](CC(N)=O)NC(=O)[C@H](CCC(=O)O)NC(=O)[C@@H](Cc1ccc(O)cc1)NC(=O)CN(CCN(CCN(CC(=O)O)CC(=O)O)CC(=O)O)CC(=O)O)C1CCN(C(=N)N)CC1)C(C)(C)C)C(=O)O
# notes: also called Compound XV
# B12: DTPA-DTyr-Glu-Asn-Lys-Pro-Gly(PipAm)-Arg-Pro-Tyr-tBuGly-Leu-OH (peptide)
# peptide: {DTPA}-[dY]ENKP[Gly(1-amidinopiperidin-4-yl)]RPY[Tle]L-OH
# SMILES: CC(C)C[C@H](NC(=O)[C@@H](NC(=O)[C@H](Cc1ccc(O)cc1)NC(=O)[C@@H]1CCCN1C(=O)[C@H](CCCNC(=N)N)NC(=O)[C@@H](NC(=O)[C@@H]1CCCN1C(=O)[C@H](CCCCN)NC(=O)[C@H](CC(N)=O)NC(=O)[C@H](CCC(=O)O)NC(=O)[C@@H](Cc1ccc(O)cc1)NC(=O)CN(CCN(CCN(CC(=O)O)CC(=O)O)CC(=O)O)CC(=O)O)C1CCN(C(=N)N)CC1)C(C)(C)C)C(=O)O
# notes: also called Compound XIII
# Target: neurotensin receptors (frozen tissue sections from receptor-positive human tumors) (human) (UniProt P30989)
# Sequence (P30989 whole entry): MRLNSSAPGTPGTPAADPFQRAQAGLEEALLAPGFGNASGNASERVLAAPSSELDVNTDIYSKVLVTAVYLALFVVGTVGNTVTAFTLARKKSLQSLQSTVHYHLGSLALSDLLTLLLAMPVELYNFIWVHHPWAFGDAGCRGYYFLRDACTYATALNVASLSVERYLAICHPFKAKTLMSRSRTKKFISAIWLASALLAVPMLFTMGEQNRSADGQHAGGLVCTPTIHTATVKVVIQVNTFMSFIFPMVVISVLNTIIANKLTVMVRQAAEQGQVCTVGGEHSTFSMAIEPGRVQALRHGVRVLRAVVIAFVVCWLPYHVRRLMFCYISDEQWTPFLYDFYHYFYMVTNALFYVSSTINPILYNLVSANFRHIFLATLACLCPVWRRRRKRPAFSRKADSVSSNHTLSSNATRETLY
# Test: competitive binding vs radioiodinated native neurotensin, human tumor sections
row,Kd,Molecule
1,> 10000 nM,DTPA-DLys-Pro-Aba(Apy)-Aba(Apy)-Pro-Tyr-Ile-Leu-OH (peptide)
2,290 nM,B1
3,740 nM,{DTPA}-[dK]P[Gly(1-amidinopiperidin-4-yl)]R[AzeCA]Y[Tle]L-OH [DTPA-DLys-Pro-Gly(PipAm)-Arg-AzeCA-Tyr-tBuGly-Leu-OH]
4,45 nM,"{DTPA}-[dK]P[Gly(1-amidinopiperidin-4-yl)]RP[Dmt][Tle]L-OH [DTPA-DLys-Pro-Gly(PipAm)-Arg-Pro-(2,6-diMe)Tyr-tBuGly-Leu-OH]"
5,300 nM,{DTPA}-[dK]P[Gly(1-amidinopiperidin-4-yl)]RP[mTyr][Tle]L-OH [DTPA-DLys-Pro-Gly(PipAm)-Arg-Pro-mTyr-tBuGly-Leu-OH]
6,24 nM,{DTPA}-[dK][AzeCA][Gly(1-amidinopiperidin-4-yl)]RPY[Tle]L-OH [DTPA-DLys-AzeCA-Gly(PipAm)-Arg-Pro-Tyr-tBuGly-Leu-OH]
7,7.3 nM,B2
8,140 nM,{DTPA}-[dK]P[Gly(1-amidinopiperidin-4-yl)][PipGly]PY[Tle]L-OH [DTPA-DLys-Pro-Gly(PipAm)-PipGly-Pro-Tyr-tBuGly-Leu-OH]
9,5 nM,B3
10,3.9 nM,{DTPA}-[PipGly]P[Gly(1-amidinopiperidin-4-yl)]RPY[Tle]L-OH [DTPA-PipGly-Pro-Gly(PipAm)-Arg-Pro-Tyr-tBuGly-Leu-OH]
11,12 nM,B4

# Target: T1, neurotensin receptors (frozen tissue sections from receptor-positive human tumors) (human, UniProt P30989 1-418)
# T1 construct: whole, on cells
# T1 sequence (P30989 whole entry): as above
# Test: as above
# Text: (§1) Frozen tissue sections from receptor-positive human tumors were used in a competitive binding assay.
row,Kd,Molecule
1,8.6 nM,B5
2,68 nM,"{DTPA}-[dK]P[Aba(Apy)]RPYIL-OH (reading uncertain, also called Compound III) [DTPA-DLys-Pro-Aba(Apy)-Arg-Pro-Tyr-Ile-Leu-OH]"
3,2.7 nM,B6

# Target: T1, neurotensin receptors (frozen tissue …)
# Test: as above
# Remark: another data set of the same source
# Text: as §1
Kd,IC50,Molecule
1200 nM,–,{DTPA}-[dK]PR[Aba(Apy)]PYIL-OH (reading uncertain) [DTPA-DLys-Pro-Arg-Aba(Apy)-Pro-Tyr-Ile-Leu-OH]
8.6 nM,–,B5
–,3.5 nM,{DTPA}-[dK]P[Gly(1-amidinopiperidin-4-yl)]RPY[Tle]L-OH (also called Compound X) [DTPA-DLys-Pro-Gly(PipAm)-Arg-Pro-Tyr-tBuGly-Leu-OH]
175 nM,–,B7
68 nM,–,"{DTPA}-[dK]P[Aba(Apy)]RPYIL-OH (reading uncertain, also called Compound III) [DTPA-DLys-Pro-Aba(Apy)-Arg-Pro-Tyr-Ile-Leu-OH]"
83 nM,–,B8
–,12.5 nM,B9
2.7 nM,–,B6

# Target: T1, neurotensin receptors (frozen tissue …)
# Test: as above
# Remark: another data set of the same source
# Text: as §1
row,Kd,Molecule
1,14 nM,{DTPA}-[dK]P[Ala(PipAm)]RPY[Tle]L-OH [DTPA-DLys-Pro-Ala(PipAm)-Arg-Pro-Tyr-tBuGly-Leu-OH]
2,1200 nM,{DTPA}-[dK]PR[Aba(Apy)]PYIL-OH (reading uncertain) [DTPA-DLys-Pro-Arg-Aba(Apy)-Pro-Tyr-Ile-Leu-OH]
3,8.6 nM,B5
4,4.5 nM,B10
5,25 nM,{DTPA}-[dK]P[Gly(1-amidinopiperidin-4-yl)]RPY[Chg]L-OH [DTPA-DLys-Pro-Gly(PipAm)-Arg-Pro-Tyr-Chg-Leu-OH]
6,3.5 nM,B11
7,3.5 nM,{DTPA}-[dK]P[Gly(1-amidinopiperidin-4-yl)]RPY[Tle]L-OH (also called Compound X) [DTPA-DLys-Pro-Gly(PipAm)-Arg-Pro-Tyr-tBuGly-Leu-OH]
8,175 nM,B7
9,68 nM,"{DTPA}-[dK]P[Aba(Apy)]RPYIL-OH (reading uncertain, also called Compound III) [DTPA-DLys-Pro-Aba(Apy)-Arg-Pro-Tyr-Ile-Leu-OH]"
10,83 nM,B8
11,14 nM,{DTPA}-[dK]P[homoAla(PipAm)]RPY[Tle]L-OH [DTPA-DLys-Pro-homoAla(PipAm)-Arg-Pro-Tyr-tBuGly-Leu-OH]
12,49 nM,{DTPA}-[dK]P[Gly(1-amidinopiperidin-4-yl)]RPY[Tle]L-{NHOH} [DTPA-DLys-Pro-Gly(PipAm)-Arg-Pro-Tyr-tBuGly-Leu-HA]
13,12.5 nM,B9
14,2.7 nM,B6
15,4.5 nM,B12
16,6.4 nM,{DTPA}-[dK]P[Gly(1-amidinopiperidin-4-yl)]RP[dY][Tle]L-OH [DTPA-DLys-Pro-Gly(PipAm)-Arg-Pro-DTyr-tBuGly-Leu-OH]
